Test system: Escherichia coli TOP10
Test: shrunken log2 fold change of peptide-encoding DNA abundance (4.5 h post-induction vs induction); higher = less antimicrobial activity (less host growth inhibition)
Conditions: time post-induction: 4.5 h; library: site-saturation at positions 5, 18, 19, 20
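Also: peptides expressed intracellularly from a pBAD plasmid library in pooled LB shake-flask culture, induced with 0.3% L-arabinose, DNA abundance read by NGS, three biological replicates, DESeq2 with apeglm shrinkage.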

| Sequence | shrunken log2 fold change |
| --- | --- |
| RRIRLRPPRLPRPRPRPEFWPRP | 0.417 |
| RRIRLRPPRLPRPRPRPEGVPRP | 0.568 |
| RRIRLRPPRLPRPRPRPEKSPRP | 0.123 |
| RRIRLRPPRLPRPRPRPELSPRP | -0.113 |
| RRIRLRPPRLPRPRPRPENAPRP | -0.000678 |
| RRIRLRPPRLPRPRPRPENHPRP | -0.126 |
| RRIRLRPPRLPRPRPRPENKPRP | -0.328 |
| RRIRLRPPRLPRPRPRPERRPRP | -0.0189 |
| RRIRLRPPRLPRPRPRPERSPRP | 0.293 |
| RRIRLRPPRLPRPRPRPETTPRP | 0.182 |
| RRIRLRPPRLPRPRPRPEVDPRP | -0.0786 |
| RRIRLRPPRLPRPRPRPEWMPRP | -0.00172 |
| RRIRLRPPRLPRPRPRPEWSPRP | -0.178 |
| RRIRLRPPRLPRPRPRPEYGPRP | -0.029 |
| RRIRLRPPRLPRPRPRPFAEPRP | 0.102 |
| RRIRLRPPRLPRPRPRPFCEPRP | -0.157 |
| RRIRLRPPRLPRPRPRPFCPPRP | -0.355 |
| RRIRLRPPRLPRPRPRPFCYPRP | -0.465 |
| RRIRLRPPRLPRPRPRPFDCPRP | 0.00355 |
| RRIRLRPPRLPRPRPRPFEKPRP | -0.0511 |
| RRIRLRPPRLPRPRPRPFFIPRP | -0.396 |
| RRIRLRPPRLPRPRPRPFFLPRP | -0.282 |
| RRIRLRPPRLPRPRPRPFFSPRP | -0.0767 |
| RRIRLRPPRLPRPRPRPFGLPRP | -0.114 |
| RRIRLRPPRLPRPRPRPFGNPRP | -0.498 |

| Sequence | shrunken log2 fold change |
| --- | --- |
| RRIRLRPPRLPRPRPRPFHAPRP | -0.219 |
| RRIRLRPPRLPRPRPRPFHIPRP | -0.292 |
| RRIRLRPPRLPRPRPRPFHMPRP | -0.16 |
| RRIRLRPPRLPRPRPRPFHPPRP | -0.0146 |
| RRIRLRPPRLPRPRPRPFIRPRP | -0.245 |
| RRIRLRPPRLPRPRPRPFIYPRP | -0.504 |
| RRIRLRPPRLPRPRPRPFKFPRP | -0.202 |
| RRIRLRPPRLPRPRPRPFKHPRP | -0.156 |
| RRIRLRPPRLPRPRPRPFLFPRP | -0.34 |
| RRIRLRPPRLPRPRPRPFLVPRP | -0.338 |
| RRIRLRPPRLPRPRPRPFMFPRP | -0.306 |
| RRIRLRPPRLPRPRPRPFMTPRP | -0.824 |
| RRIRLRPPRLPRPRPRPFMYPRP | -1.5 |
| RRIRLRPPRLPRPRPRPFNGPRP | -0.0434 |
| RRIRLRPPRLPRPRPRPFNHPRP | -0.249 |
| RRIRLRPPRLPRPRPRPFNIPRP | -0.0972 |
| RRIRLRPPRLPRPRPRPFQDPRP | 0.000192 |
| RRIRLRPPRLPRPRPRPFRDPRP | 0.00463 |
| RRIRLRPPRLPRPRPRPFRHPRP | -0.322 |
| RRIRLRPPRLPRPRPRPFRLPRP | -0.0872 |
| RRIRLRPPRLPRPRPRPFSQPRP | -0.0811 |
| RRIRLRPPRLPRPRPRPFSSPRP | -0.000451 |
| RRIRLRPPRLPRPRPRPFVHPRP | -0.308 |
| RRIRLRPPRLPRPRPRPFVTPRP | -0.303 |
| RRIRLRPPRLPRPRPRPFYFPRP | -0.432 |

| Sequence | shrunken log2 fold change |
| --- | --- |
| RRIRLRPPRLPRPRPRPFYQPRP | -0.161 |
| RRIRLRPPRLPRPRPRPGALPRP | 0.0546 |
| RRIRLRPPRLPRPRPRPGCGPRP | 0.49 |
| RRIRLRPPRLPRPRPRPGESPRP | 0.0313 |
| RRIRLRPPRLPRPRPRPGGLPRP | 0.097 |
| RRIRLRPPRLPRPRPRPGGPPRP | 1.36 |
| RRIRLRPPRLPRPRPRPGHCPRP | 0.0372 |
| RRIRLRPPRLPRPRPRPGHGPRP | -0.00133 |
| RRIRLRPPRLPRPRPRPGHHPRP | -0.2 |
| RRIRLRPPRLPRPRPRPGHQPRP | 0.122 |
| RRIRLRPPRLPRPRPRPGHSPRP | -0.0313 |
| RRIRLRPPRLPRPRPRPGHVPRP | 0.0522 |
| RRIRLRPPRLPRPRPRPGKRPRP | 0.364 |
| RRIRLRPPRLPRPRPRPGKSPRP | -0.047 |
| RRIRLRPPRLPRPRPRPGLEPRP | 0.11 |
| RRIRLRPPRLPRPRPRPGMSPRP | 0.0159 |
| RRIRLRPPRLPRPRPRPGNEPRP | -0.0032 |
| RRIRLRPPRLPRPRPRPGPQPRP | 0.228 |
| RRIRLRPPRLPRPRPRPGPWPRP | 0.325 |
| RRIRLRPPRLPRPRPRPGRKPRP | 0.0459 |
| RRIRLRPPRLPRPRPRPGRQPRP | 0.207 |
| RRIRLRPPRLPRPRPRPGSLPRP | -0.0743 |
| RRIRLRPPRLPRPRPRPGSNPRP | -0.57 |
| RRIRLRPPRLPRPRPRPGSWPRP | 0.18 |
| RRIRLRPPRLPRPRPRPGTDPRP | -0.151 |
